Sequences and labels used below:
B1: ZNF24 (parent)
chain: THTKEQILELVVLEQFVAILPKEL
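Further: lentivirally expressed fusions sorted by FACS into six bins by GFP to DsRed ratio, PSI derived from sequencing read proportions per bin multiplied by bin number.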

The data set covers variants of B1. Briefly: protein stability index of a GFP-peptide fusion (GPS, HEK-293T) (PSI 1-6); higher = more stable. The settings on record: c terminus: a fixed tail appended.
Regarding THTKEQILESVVLEQFVAILPKEL [L10S], the protein stability index was determined as 1.72.

For the variant THTKEQILECVVLEQFVAILPKEL [L10C], the protein stability index stood at 2.42.

As for THTKEQILEDVVLEQFVAILPKEL [L10D], the protein stability index is 2.69.

On to THTKEQILEEVVLEQFVAILPKEL [L10E], for which the protein stability index came to 2.12.

Take THTKEQILEHVVLEQFVAILPKEL [L10H]: the protein stability index came to 1.65.

Regarding THTKEQILEMVVLEQFVAILPKEL [L10M], the protein stability index is 2.69.

THTKEQILETVVLEQFVAILPKEL [L10T]: the protein stability index stood at 2.03.

THTKEQILEKVVLEQFVAILPKEL [L10K]: the protein stability index came to 2.04.

In the case of THTKEQILEGVVLEQFVAILPKEL [L10G], the protein stability index turned out to be 1.7.

On to THTKEQILENVVLEQFVAILPKEL [L10N], for which the protein stability index was 2.23.

Regarding THTKEQILEPVVLEQFVAILPKEL [L10P], the protein stability index is 2.09.

For the variant THTKEQILEFVVLEQFVAILPKEL [L10F], the protein stability index was 2.35.

With THTKEQILEYVVLEQFVAILPKEL [L10Y], the protein stability index worked out at 2.69.

As for THTKEQILEAVVLEQFVAILPKEL [L10A], the protein stability index worked out at 2.28.

On to THTKEQILERVVLEQFVAILPKEL [L10R], for which the protein stability index turned out to be 1.72.

As for THTKEQILEVVVLEQFVAILPKEL [L10V], the protein stability index was 2.5.

As for THTKEQILEQVVLEQFVAILPKEL [L10Q], the protein stability index was 2.26.

Turning to THTKEQILEIVVLEQFVAILPKEL [L10I], the protein stability index is 2.02.

On to THTKEQILTLVVLEQFVAILPKEL [E9T], for which the protein stability index was 2.29.

As to THTKEQILNLVVLEQFVAILPKEL [E9N], the protein stability index is 2.82.

On to THTKEQILGLVVLEQFVAILPKEL [E9G], for which the protein stability index came to 2.85.

In the case of THTKEQILLLVVLEQFVAILPKEL [E9L], the protein stability index amounted to 2.62.

With THTKEQILSLVVLEQFVAILPKEL [E9S], the protein stability index was determined as 3.48.

With THTKEQILHLVVLEQFVAILPKEL [E9H], the protein stability index turned out to be 3.25.

THTKEQILWLVVLEQFVAILPKEL [E9W]: the protein stability index was determined as 2.87.

For the variant THTKEQILPLVVLEQFVAILPKEL [E9P], the protein stability index was found to be 2.93.

Regarding THTKEQILQLVVLEQFVAILPKEL [E9Q], the protein stability index turned out to be 2.69.

For the variant THTKEQILKLVVLEQFVAILPKEL [E9K], the protein stability index was 2.77.

On to THTKEQILMLVVLEQFVAILPKEL [E9M], for which the protein stability index was 2.04.

In the case of THTKEQILYLVVLEQFVAILPKEL [E9Y], the protein stability index worked out at 3.52.

For the variant THTKEQILVLVVLEQFVAILPKEL [E9V], the protein stability index was 3.25.

THTKEQILRLVVLEQFVAILPKEL [E9R]: the protein stability index was determined as 2.49.

Consider THTKEQILELVDLEQFVAILPKEL [V12D], for which the protein stability index came out at 2.27.

For THTKEQILELVELEQFVAILPKEL [V12E], the protein stability index was determined as 2.22.

Turning to THTKEQILELVPLEQFVAILPKEL [V12P], the protein stability index came to 2.19.

In the case of THTKEQILELVQLEQFVAILPKEL [V12Q], the protein stability index came out at 2.05.

With THTKEQILELVSLEQFVAILPKEL [V12S], the protein stability index was 2.03.

As for THTKEQILELVALEQFVAILPKEL [V12A], the protein stability index was 1.83.

On to THTKEQILELVCLEQFVAILPKEL [V12C], for which the protein stability index stood at 2.23.

As for THTKEQILELVYLEQFVAILPKEL [V12Y], the protein stability index turned out to be 2.64.

In the case of THTKEQILELVTLEQFVAILPKEL [V12T], the protein stability index came out at 1.99.

As for THTKEQILELVMLEQFVAILPKEL [V12M], the protein stability index was 2.51.

For THTKEQILELVGLEQFVAILPKEL [V12G], the protein stability index stood at 1.98.

On to THTKEQILELVNLEQFVAILPKEL [V12N], for which the protein stability index was determined as 2.14.

Take THTKEQILELVLLEQFVAILPKEL [V12L]: the protein stability index was determined as 2.12.

For THTKEQILELVKLEQFVAILPKEL [V12K], the protein stability index was 2.07.

For the variant THTKEQILELVILEQFVAILPKEL [V12I], the protein stability index is 3.17.

For the variant THTKEQILELVHLEQFVAILPKEL [V12H], the protein stability index is 1.8.

For THTKEQILELVRLEQFVAILPKEL [V12R], the protein stability index was found to be 1.94.

Take THTKEQILELVWLEQFVAILPKEL [V12W]: the protein stability index turned out to be 2.42.

Consider THTKEQILELVFLEQFVAILPKEL [V12F], for which the protein stability index came out at 2.93.

On to THTKEQILELVVLGQFVAILPKEL [E14G], for which the protein stability index worked out at 3.21.

In the case of THTKEQILELVVLDQFVAILPKEL [E14D], the protein stability index is 2.24.

Take THTKEQILELVVLCQFVAILPKEL [E14C]: the protein stability index was found to be 2.45.

For the variant THTKEQILELVVLFQFVAILPKEL [E14F], the protein stability index came out at 2.48.

On to THTKEQILELVVLAQFVAILPKEL [E14A], for which the protein stability index came to 2.14.

For THTKEQILELVVLHQFVAILPKEL [E14H], the protein stability index came to 2.94.

Take THTKEQILELAVLEQFVAILPKEL [V11A]: the protein stability index came out at 2.1.

Regarding THTKEQILELRVLEQFVAILPKEL [V11R], the protein stability index amounted to 1.76.

On to THTKEQILELHVLEQFVAILPKEL [V11H], for which the protein stability index stood at 2.18.

Turning to THTKEQILELNVLEQFVAILPKEL [V11N], the protein stability index amounted to 2.15.

For THTKEQILELSVLEQFVAILPKEL [V11S], the protein stability index amounted to 2.03.

As for THTKEQILELFVLEQFVAILPKEL [V11F], the protein stability index worked out at 3.28.

On to THTKEQILELGVLEQFVAILPKEL [V11G], for which the protein stability index came to 2.05.

Turning to THTKEQILELTVLEQFVAILPKEL [V11T], the protein stability index was 2.

In the case of THTKEQILELYVLEQFVAILPKEL [V11Y], the protein stability index stood at 1.91.

With THTKEQILELLVLEQFVAILPKEL [V11L], the protein stability index came out at 2.43.

THTKEQILELWVLEQFVAILPKEL [V11W]: the protein stability index is 3.42.

On to THTKEQILELQVLEQFVAILPKEL [V11Q], for which the protein stability index stood at 2.05.

Regarding THTKEQILELPVLEQFVAILPKEL [V11P], the protein stability index was 2.67.

With THTKEQILELCVLEQFVAILPKEL [V11C], the protein stability index is 2.51.

As to THTKEQILELKVLEQFVAILPKEL [V11K], the protein stability index came to 1.47.

Regarding THTKEQILELDVLEQFVAILPKEL [V11D], the protein stability index was 2.36.

Turning to THTKEQILELIVLEQFVAILPKEL [V11I], the protein stability index is 3.03.

Take THTKEQILELMVLEQFVAILPKEL [V11M]: the protein stability index is 2.6.

In the case of THTKEQILELEVLEQFVAILPKEL [V11E], the protein stability index turned out to be 1.86.

As to THTKEQILELVVKEQFVAILPKEL [L13K], the protein stability index came to 1.69.

For THTKEQILELVVMEQFVAILPKEL [L13M], the protein stability index is 2.18.

With THTKEQILELVVSEQFVAILPKEL [L13S], the protein stability index came out at 1.55.

Take THTKEQILELVVEEQFVAILPKEL [L13E]: the protein stability index was determined as 1.9.

Turning to THTKEQILELVVNEQFVAILPKEL [L13N], the protein stability index worked out at 1.73.

With THTKEQILELVVTEQFVAILPKEL [L13T], the protein stability index was determined as 2.77.

Regarding THTKEQILELVVAEQFVAILPKEL [L13A], the protein stability index worked out at 1.51.

Consider THTKEQILELVVPEQFVAILPKEL [L13P], for which the protein stability index was found to be 2.42.

As to THTKEQILELVVREQFVAILPKEL [L13R], the protein stability index was 1.85.

Consider THTKEQILELVVFEQFVAILPKEL [L13F], for which the protein stability index came out at 2.47.

For the variant THTKEQILELVVDEQFVAILPKEL [L13D], the protein stability index was 2.29.

Consider THTKEQILELVVYEQFVAILPKEL [L13Y], for which the protein stability index turned out to be 2.88.

Turning to THTKEQILELVVIEQFVAILPKEL [L13I], the protein stability index was 3.27.

Turning to THTKEQILELVVWEQFVAILPKEL [L13W], the protein stability index amounted to 2.67.

Regarding THTKEQILELVVHEQFVAILPKEL [L13H], the protein stability index was 1.76.

For THTKEQILELVVCEQFVAILPKEL [L13C], the protein stability index came to 1.98.

On to THTKEQILELVVGEQFVAILPKEL [L13G], for which the protein stability index was 1.84.

Take THTKEQILELVVQEQFVAILPKEL [L13Q]: the protein stability index turned out to be 2.34.

(Values after the supplement of paper PMC10567573.)
